# Columns and labels:
# GST-fused ADRB2 C-tail = experiment: GST-pull down, ADRB2 C-tail; assay type: binding; conditions: central domain compared to full-length GASP-1
# Method: (§1) cDNAs encoding the cytoplasmic C-tail of 14 GPCRs and 2 one-transmembrane receptors were cloned into the pGEX-2T prokaryotic expression vector downstream the GST sequence. […]
# (§2) GST-fusion proteins were immobilized on glutathione-coupled Sepharose beads (GE Healthcare) for 1 h at 4°C and incubated with [^35S]-labelled in vitro translated GASP proteins or their truncated or mutated forms in ice-cold binding buffer containing: 20 mM Tris-HCl pH 7.4, 150 mM NaCl, 1 mM EDTA, 1 mM DTT, 10% glycerol and 1% Triton X-100. […] The supernatants were then analyzed by SDS-PAGE, the gels were stained with Coomassie blue to visualize GST-fusion proteins, dried and analyzed using a Phosphor-imager (Personal Molecular Imager FX, Biorad) to visualize [^35S]-labelled GASPs. Quantification was performed with the Quantity One software (Biorad). GST-pull down quantification data were analyzed using GraphPad Prism 4.03 (GraphPad Software). Quantifications presented are means of at least three independent experiments.
# [1] = test system: GFP-tagged ADRB1 in HEK293 cells; experiment: Co-immunoprecipitation, ADRB1; assay type: cell-based; conditions: 48 h expression, anti-GFP immunoprecipitation
# Method: (§3) HEK293 cells stably expressing N-terminal GFP-tagged ADRB1, ADRB2, CALCR and M1 or MyrPalm-mYFP were transfected with pcDNA3.1 containing the sequence for a central domain of GASP-1 (AA 380 to 1073) using JetPEI reagent (polyplus transfection) according to the instructions from the manufacturer. After 48 h of expression, cells were washed twice with PBS and lysed in a buffer containing 10 mM Tris-HCl, pH 7.4, 150 mM NaCl, 25 mM KCl, 0.3% Triton X-100 and cOmplete protease inhibitors (Roche) for 1 h at 4°C under agitation. 500 µg of cleared lysates were incubated with 1 µg of a mouse monoclonal anti-GFP antibody (Invitrogen) overnight at 4°C, followed by an incubation with 40 µl of protein A-Sepharose beads for an additional 2 h at 4°C. Beads were then washed five times in lysis buffer and precipitates were resolved on an 8% gel by SDS–PAGE and electrotransferred to immobilon-P membranes (Millipore) in 50 mM Tris-boric acid for 1 h at 300 mA. Membranes were blocked with 5% non-fat powder milk in TBS-Tween (50 mM Tris-HCl pH 8, 150 mM NaCl, 0.4% Tween-20) for 1 h at room temperature. […] For immunodetection of GASP or GFP-tagged receptors directly from cell lysates, 10 µg of proteins were loaded on SDS gels and analyzed following the procedure described above. Finally, membranes were washed in TBS-Tween and detected by chemiluminescence (ECL prime, GE Healthcare). […]
# GST-fused M1 C-tail = experiment: GST-pull down, M1 C-tail; assay type: binding; conditions: percent of full-length GASP-1 interaction; three independent experiments
# Summary of the method: (§4)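 Radiolabelled GASPs ([35S]-Met, coupled transcription/translation) were pulled down by bead-immobilized GST-receptor C-tails, 1 h, 4°C, in 20 mM Tris-HCl pH 7.4, 150 mM NaCl, 1% Triton X-100, 10% glycerol. After five washes, retained GASP was imaged by phosphorimager; values are means of ≥3 experiments.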
# GST-fused CNR2 C-tail = experiment: GST-pull down, CNR2 C-tail; assay type: binding; conditions: central domain compared to full-length GASP-1
# Method: as §1, §2
# GST-fused DOR C-tail = experiment: GST-pull down, DOR C-tail; assay type: binding; conditions: percent of full-length GASP-1 interaction; three independent experiments
# Summary of the method: as §4
# [2] = test system: GFP-tagged CALCR in HEK293 cells; experiment: Co-immunoprecipitation, CALCR; assay type: cell-based; conditions: 48 h expression, anti-GFP immunoprecipitation
# Method: as §3
molecule,measurement,setting,value
"central domain of GASP-1: central portion of GASP-1 (AA 380 to 1073) that contains 19 GASP motif (protein, left off: GST, N-terminal, kept, central portion of GASP-1 (AA 380 to 1073) that contains 19 GASP motif) MTKEEAKTKARARAKQEARSEEEALIGTWFWATDESSMADEASIESSLQVEDESIIGSWFWTEEEASMGTGASSKSRPRTDGERIGDSLFGAREKTSMKTGAEATSESILAADDEQVIIGSWFWAGEEVNQEAEEETIFGSWFWVIDAASVESGVGVSCESRTRSEEEEVIGPWFWSGEQVDIEAGIGEEARPGAEEETIFGSWFWAENQTYMDCRAETSCDTMQGAEEEEPIIGSWFWTRVEACVEGDVNSKSSLEDKEEAMIPCFGAKEEVSMKHGTGVRCRFMAGAEETNNKSCFWAEKEPCMYPAGGGSWKSRPEEEEDIVNSWFWSRKYTKPEAIIGSWLWATEESNIDGTGEKAKLLTEEETIINSWFWKEDEAISEATDREESRPEAEEGDIIGSWFWAGEEDRLEPAAETREEDRLAAEKEGIVGSWFGAREETIRREAGSCSKSSPKAEEEEVIIGSWFWEEEASPEAVAGVGFESKPGTEEEEITVGSWFWPEEEASIQAGSQAVEEMESETEEETIFGSWFWDGKEVSEEAGPCCVSKPEDDEEMIVESWFWSRDKAIKETGTVATCESKPENEEGAIVGSWFEAEDEVDNRTDNGSNCGSRTLADEDEAIVGSWFWAGDEAHFESNPSPVFRAICRSTCSVEQEPDPSRRPQSWEEVTVQFKPGPWGRVGFPSISPFRFPKE",interaction with ADRB2 C-tail,GST-fused ADRB2 C-tail,mandatory and sufficient for this interaction
same,co-immunoprecipitation with ADRB1,[1],co-immunoprecipitated
same,interaction with M1 C-tail relative to full-length GASP-1,GST-fused M1 C-tail,around 70%
same,interaction with CNR2 C-tail,GST-fused CNR2 C-tail,mandatory and sufficient for this interaction
same,interaction with DOR C-tail relative to full-length GASP-1,GST-fused DOR C-tail,~30%
same,co-immunoprecipitation with CALCR,[2],co-immunoprecipitated

# — paper PMC3575409, “Identification of a Novel Protein-Protein Interaction Motif Mediating Interaction of GPCR-Associated Sorting Proteins with G Protein-Coupled Receptors” (PLoS ONE, 2013)
